In the RNAGym collection of RNA variant scans (doi:10.1073/pnas.2313332121):

B1: TPR t1 (parent)
chain: GACCAAUCUGCCCUCAGAGCUCGAGAACAUCUUCGGAUGCAGAGGAGGCAGGCUUCGGUGGCGCGAUAGCGCCAACGUCCUCAACCUCCAAUGCAUCCCACCACAUGAUGAUGCCUGAAGAGCCUUGGUUUUUUG

Variants of: B1
Assay: polymerase ribozyme fitness, log enrichment relative to wild type (log ratio); higher = more active; in vitro selection for triplet polymerase activity
In short: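 Genotype fitness is the logarithm of its enrichment divided by wild-type enrichment, using inverse-variance-weighted averages of replicates. That logarithm is base 2. Enrichment was measured by Illumina sequencing of input and output libraries from one triplicate in vitro selection round, with frozen incubation at −7 °C, on PCR-built, transcribed mutant libraries of each subunit of a heterodimeric triplet polymerase ribozyme, retaining genotypes with ≥10 input reads and ≥1 read per output.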

Row | Variant | polymerase ribozyme fitness (log ratio)
1 | G17A A41C G117U | -3.91
2 | C4A | -1.19
3 | C49G C115A | -1.51
4 | A46U A100U | -1.69
5 | C11U U21A A27G A105G | -4.61
6 | C40U C56U A90U | -2.08
7 | C22U G120C U130G | -4.69
8 | C40U G61C C88A | -2.87
9 | A90C U112G | -0.757
10 | G44A U96G U116A | -5.13
11 | G10C A27U U87G | -3.55
12 | G10A C13U C64A C70A G113A U125C | -6.12
13 | G63C C97G | -4.59
14 | C8G C13G A16U C49A C70U U129C | -1.75
15 | U55A G69C C104U C115A | -0.166
16 | C70A C102U | -4.59
17 | C20U A43U C114G C123A | -2.41
18 | U92G | -2.38
19 | C70G C72U C123A U129G U133G | -2.93
20 | G69C U78A | -2.44
21 | U30G C49G C80G G117C | -7.34
22 | C12A G61C | -2.46
23 | G71U C101U | -0.379
24 | U96C C102U G110A G122U | -6.13

Row | Variant | polymerase ribozyme fitness (log ratio)
25 | C56U C72A A100C C104U A121G | 1.21
26 | U7C G10A C11G G93U | -1.34
27 | A18C G61A | -2.53
28 | C89A A119U | -1.88
29 | C88U C101U | -0.588
30 | G36A G45C A83G C101G | -2.84
31 | C8A C97A G120C | -3.2
32 | A84G C98A | -6.26
33 | C8A C56A C102A A103U | -3.2
34 | C11G C73G | -0.268
35 | A27G C85A | -3.2
36 | C20G C72A U87C G113A U130G | -1.05
37 | G57C U106A U112A | 1.17
38 | U9A G10U G44U G60A C89G G127C | -2.63
39 | G42A C114G | -2.75
40 | U7G C13U A26G G48A C49U G52A A75C | -3.14
41 | U129G U132A | -3.7
42 | A37C G69U U96G U129A | -0.113
43 | C82U G93C G117U | -2.53
44 | A5C C73G C102A | -3.71
45 | C62U A74U | -0.71
46 | G19U U21G C49A G71A C114A | 0.71
47 | U92A U130G U131G | -5.8
48 | C15G C86U U116G | -2.95

Row | Variant | polymerase ribozyme fitness (log ratio)
49 | C34U C49G C53G A75G C88A C104A U112A | -5.7
50 | U109A A111C C114A G117C | -6.37
51 | A6C C80A | -1.52
52 | C11U C82A | -1.02
53 | C40A G127C | -2.27
54 | C94G C114U G128C | -3.47
55 | U9A C31U A111C G135U | -4.56
56 | A37U U92C | -1.28
57 | C97A U131A | -3.97
58 | G110A C123U | -0.322
59 | C20A C28A G36A A90C G110U | -4.25
60 | G23U G42A A46U G69U U109A C123U | -5.99
61 | G36A C86G | -2.04
62 | G63A U132C | -1.92
63 | C86A G135U | -1.3
64 | U14G G48A A50G C72A G120C A121C | -1.94
65 | G65U C124A | -4.07
66 | A37C C76G | -0.251
67 | C56U A66C U78A | -2.84
68 | C62U G128C | -3.37
69 | U9G C12A U54A G93A | 0.0472
70 | U55A U78G C82A G110A | -2.58
71 | C70U C79U | 0.361
72 | A2C G71U | -2.08

Row | Variant | polymerase ribozyme fitness (log ratio)
73 | A29U C76G C86A | -2.31
74 | G25A C40U G93C C101U C104G C115U A118G | -6.52
75 | G17U C70U U87A | -4.04
76 | C12G G47U | -1.82
77 | C11G G36A G47C G117A U129A | -4.45
78 | C11G C15G G47C U116C | -2.52
79 | C40U C62U A95G | -0.773
80 | A41U U130A | -2.03
81 | A50G G63U C101G G120C U130G | -3.55
82 | U54C G61A | -0.24
83 | C85U C114G | -3.53
84 | C20G G135C | -3.68
85 | A24C G61U | -6.19
86 | G52A A118G | -0.546
87 | C13G G25C C49A C98U U112A C115G | -7.45
88 | G61A G120C | 1.14
89 | C8U C13U A43G | -1.25
90 | U9G A24G | -0.443
91 | U7A C8A A37G U59G C62U C88U G113C | -3.69
92 | C22G C73A | -3.17
93 | G71A G135U | -1.5
94 | A46U A105C A119G C124A | -1.39
95 | C12G G42A | -1.36
96 | C70G U131A | -2

Row | Variant | polymerase ribozyme fitness (log ratio)
97 | C11U G69C | -1.87
98 | C62U U109A G117U A119C | -7.11
99 | G48A G110A | -1.6
100 | G36A A37G C70A | -3.19
101 | G10A A37G G61C C85G C86A G113A C124G U130A | -5.79
102 | C73A C123U | 1.47
103 | G63A C101A | -3.39
104 | U7A U38G C49A | -0.102
105 | A41U U133G | -1.49
106 | G39A C53U G61C A84U G127C | -2.2
107 | G52A G60C C70U U109A | -5.53
108 | C4U U38G U112A | -0.207
109 | U9A G10A C40A C70U U78C G110U C123U | -4.89
110 | A5U U9G G47A G52U | -1.96
111 | A2G C97U G113U C114G | -3.04
112 | C8G G63C G117C C124A | -1.86
113 | U7A C49U G52U G61A G120A | 0.469
114 | C4A G48C G61A U81C U96A | -3.76
115 | C3A C22G A37G A111G | -4.63
116 | A6G G25A C34U G42C G69C U87C C114A C124U | -6.61
117 | A18G A50U C56A C79A C101U A118U C124U | -7.24
118 | C53A U78C | -0.332
119 | C8G A46G G107A | -4.69
120 | G93A C99U | -4.67

Row | Variant | polymerase ribozyme fitness (log ratio)
121 | U30A A41C G113A C124A | -5.47
122 | U54A U106A C124A U129C | 0.971
123 | C4U G42A C114G | -3.21
124 | A24U G69U | -3.76
125 | C97G U112G | -5.5
126 | C85U A95U C115A G120C | -0.474
127 | C94U G110A | -1.18
128 | A46C C114U | -2.43
129 | G10C U78C U106A U109G | -4.27
130 | C20A C40G | -4.64
131 | A5U C13A C28U C49U C56U G120C G135U | -5.49
132 | C20G G117U | -5.16
133 | C8G C88A | -0.193
134 | A18U U38G G71A C89A U129A | -6.64
135 | U112G G117A | -2.9
136 | A26U C53U G71C A118U | -3.17
137 | U87A U130C | -1.39
138 | C86U A100U | -0.74
139 | C4G C12A C15A C94A C99U G110C | -6.59
140 | G60C G127A | -1.59
141 | C56G U92G U96A G122A | -4.6
142 | U14G C72A | -2.6
143 | A16C C82G G120C | -1.47
144 | U30C G71U U87C | -4.19

Row | Variant | polymerase ribozyme fitness (log ratio)
145 | U55A C80A C86G C124G | -4.35
146 | C3U G39C G44A G77U U78A A119G | -1.19
147 | C22A C73G C82A G120U U125C | -5.37
148 | C64A C86U C98U | -7.04
149 | G52U G120C | -0.122
150 | A66G C97U U112G | -2.06
151 | C15A A43U C49U A91U | -3.45
152 | C12U C72G G117C A119U | -1
153 | C12U G42C C53A G71U C88G G128A G135U | -6.24
154 | A41G C53U G77A A108G | -2.63
155 | C102A U109A | -5.92
156 | U96A C123U | -0.01
157 | A46C U87A G110C | -3.24
158 | C86U C94A U106G | -3.23
159 | U9G C56A C79G | -1.55
160 | C49G C85G U116G | -3.63
161 | A2G C34A U55A C70G U112C | -5.23
162 | C28A C72G | -2.92
163 | G52C U59C G120U U125C | -0.0154
164 | C12G C22U U32G G69U C72G C102A A111U G122U | -5.99
165 | G39A A68G C115G U130A | -6.03
166 | A83U G93C C104U U116G G122A | -4.03
167 | A41U G48C A83C C88G | -4.38
